Data from patent US20260250410A1 (SICHUAN HUIYU PHARMACEUTICAL, published 2026).

Molecular target: T1, HuCDCP1-B (human, UniProt Q9H5V8 343-667)
T1 construct: range 343-667; expressed in HEK-293T, purified by Fc/his tag; also called human CDCP1-B; membrane-proximal region of CDCP1; not shown: Fc or his tag
T1 sequence (looked up): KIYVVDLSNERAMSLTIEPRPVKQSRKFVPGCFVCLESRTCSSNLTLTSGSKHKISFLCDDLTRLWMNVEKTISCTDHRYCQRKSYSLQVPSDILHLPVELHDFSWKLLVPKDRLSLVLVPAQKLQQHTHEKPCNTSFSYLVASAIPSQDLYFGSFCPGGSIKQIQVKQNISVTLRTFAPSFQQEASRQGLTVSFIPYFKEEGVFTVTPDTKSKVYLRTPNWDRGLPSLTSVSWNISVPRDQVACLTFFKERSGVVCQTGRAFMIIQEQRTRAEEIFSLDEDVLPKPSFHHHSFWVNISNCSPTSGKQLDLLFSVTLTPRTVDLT
Experiment: SPR (Caterra or Biacore), antigen immobilized

B1: 12E6 (antibody, V domains shown)
VH: EVQLKESGPGILQPSQTLSLTCSFSGFSLSTSGMGVGWIRQPSGKGLEWLAHIWWDDVKLYNPALKSRLTISKETSNNQVFLKIASVDAADTATYYCARIDHGYGSNYWDFDVWGAGTTVTVSS
VL: DIVMTQAAPSVPVTPGGSVSISCRSTKSLLHSDGKTYLYWFLQRPGQSPQLLIYRMSNLASGVPDRFSGSGSGTAFTLRISRVEAEDVGVYYCMQHLEYPFTFGSGTKLEIK
notes: murine hybridoma mAb
For B1, the EC50 was 1.62 nM.

B2: 3C11 (antibody, V domains shown)
VH: EVQLQQSGTVLARPGASVKMSCKASGYNFISYWLHWIKQRPGQGLEWIGGIYPGNTDTTYNQKFKGKAKVTAVTSATTAYMELSSLTNEDSAVYYCIRYDYDRGMDYWGQGTTVTVSS
VL: DIQMTQSPSSFSVSLGDRVTITCRASEDIYYRLAWYQQKPGNAPRLLISGATALETGVPSRFSGSGSGKDYTLSITSLQTEDVATYYCQHYWNIPWTFGGGTKLEIK
notes: murine hybridoma mAb
Binder B2 has an EC50 of 3.78 nM.
